According to patent publication US20260356924 (published 2026):
Residue numbers refer to the chain shown, from its start.

How the values were obtained:
ePHF = ePHF (human, UniProt P10636); test: ELISA
iPHF [1] = molecular target: T1, iPHF (human, UniProt P10636); test: BLI
[2] = molecular target: T2, Tau409-426 pS416 pS422 peptide (human); test: ELISA
T2 chain: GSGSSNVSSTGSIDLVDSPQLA

[3] = molecular target: T3, Tau409-426 6-phospho peptide (human, not fully specified); test: ELISA
T3 chain: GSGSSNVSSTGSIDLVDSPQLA

Tau409-426 pS422 peptide [4] = molecular target: T4, Tau409-426 pS422 peptide (human); test: ELISA
T4 chain: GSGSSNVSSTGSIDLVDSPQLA

tau peptide 413-430 = molecular target: T5, tau peptide 413-430 (human, phosphorylation not given)
T5 chain: STGSIDMVDSPQLATLAD

iPHF [5] = molecular target: T1, iPHF; test: SPR
iPHF [6] = molecular target: T1, iPHF; test: SPR, KD2
iPHF [7] = molecular target: T1, iPHF; test: SPR, KD1
Tau409-426 pS422 peptide [8] = molecular target: T4, Tau409-426 pS422 peptide; test: SPR

ePHF, sequence (P10636 2-758): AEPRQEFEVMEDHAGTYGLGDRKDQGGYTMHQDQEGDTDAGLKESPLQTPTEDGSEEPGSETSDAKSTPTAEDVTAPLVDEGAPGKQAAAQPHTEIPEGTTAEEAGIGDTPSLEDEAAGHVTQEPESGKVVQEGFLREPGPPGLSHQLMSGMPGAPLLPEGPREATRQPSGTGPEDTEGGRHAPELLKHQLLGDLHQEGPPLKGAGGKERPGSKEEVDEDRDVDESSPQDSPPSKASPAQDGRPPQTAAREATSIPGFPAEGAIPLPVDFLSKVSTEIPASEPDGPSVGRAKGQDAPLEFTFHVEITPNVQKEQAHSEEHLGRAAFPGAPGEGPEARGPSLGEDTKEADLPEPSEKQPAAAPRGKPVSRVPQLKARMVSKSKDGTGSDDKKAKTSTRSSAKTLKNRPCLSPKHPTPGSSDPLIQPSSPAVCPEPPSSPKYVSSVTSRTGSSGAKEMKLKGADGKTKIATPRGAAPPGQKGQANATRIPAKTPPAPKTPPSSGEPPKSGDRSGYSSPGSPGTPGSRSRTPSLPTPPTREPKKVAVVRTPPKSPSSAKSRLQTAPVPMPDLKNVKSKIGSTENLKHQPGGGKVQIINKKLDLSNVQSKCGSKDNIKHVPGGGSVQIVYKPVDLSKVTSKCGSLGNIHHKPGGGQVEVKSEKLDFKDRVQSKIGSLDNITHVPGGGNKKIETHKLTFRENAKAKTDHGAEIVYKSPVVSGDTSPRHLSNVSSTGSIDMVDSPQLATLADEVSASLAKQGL
T1 sequence (P10636 2-758): as above

B1: V0004 (antibody, V domains shown)
VH: QVQLQQPGAELVKPGASVKLSCKASDYTFTNYWMHWVKQRPGRGLEWIGRIDPNSGGTRYNEKFKNKATLTVDKPSSTAYMHLSSLTSEDSAVYYCAGDFDVWGTGTTVTVSS
VL: DIQMTQSPASLSASVGETVTITCRASGNIHNYLAWYQQRQGKSPQLLVYNAKTLPDGVPSRFSGSGSGTQYSLKINSLQPEDFGSYCCQHFWSTPLTFGAGTKLELK
modifications: enriched paired helical filament tau, hyperphosphorylated
EC50 (ePHF): 0.083 nM

B2: V0004 (antibody, V domains shown)
VH: B1 VH
VL: B1 VL
modifications: immunopurified paired helical filament tau, hyperphosphorylated
Kd (iPHF [1]): 20 nM

B3: V0024 (antibody, V domains shown)
VH: QVQLQQPGTELVKPGASVKLSCKASGYTFTRFWMHWVKQRPGQGLEWIGNINPNNGGTDNNERFKSKATLTVDRSSSTAYMQLSSLTSEDSAVYYCARGTGTGAMDYWGQGTSVTVSS
VL: DVVMTQTPLSLPVSLGDQASISCRSSQSLVHSNGNTHLYWYLQKPGQSPKLLIYRVSSRFSGVPDRFSGSGSGTDFTLKISRVEAEDLGVYFCFQGTHVPRTFGGGTKLEIK
EC50 [2]: 0.22 nM
EC50 [3]: 0.222 nM
EC50 (Tau409-426 pS422 peptide [4]): 0.233 nM
Kd (tau peptide 413-430): 0.225 nM

B4: V0023 (antibody, V domains shown)
VH: B3 VH with R31I, Q43H, N50K, T58G, N60Y, R63K, R74K, S77T, M81L
VL: B3 VL with Q18H, N35I, K44R, S48T, S58N, R82S, K112E
modifications: immunopurified paired helical filament tau, hyperphosphorylated
Kd (iPHF [1]): 4 nM
Kd (iPHF [5]): 0.0578 nM

B5: V0022 (antibody, V domains shown)
VH: QVQLQQPGTELVKPGSSVNLSCKASGFTFTRYWMHWVKERPGHGLEWIGNINPNNGGTDFNEKFKNKATLTVHKSSTTVFIQLSSLTSEDSAVYYCARGTGTGAMDYWGQGTSVTVSS
VL: B3 VL with S32N, N35I, H37Y, S58N, S68G
EC50 [2]: 0.283 nM
EC50 [3]: 0.302 nM
EC50 (Tau409-426 pS422 peptide [4]): 0.288 nM
Kd (tau peptide 413-430): 0.306 nM

B6: V0022 (antibody, V domains shown)
VH: B5 VH
VL: B3 VL with S32N, N35I, H37Y, S58N, S68G
modifications: immunopurified paired helical filament tau, hyperphosphorylated
Kd (iPHF [1]): 0.3 nM
Kd (iPHF [5]): 0.0439 nM

B7: V0023 (antibody, V domains shown)
VH: B3 VH with R31I, Q43H, N50K, T58G, N60Y, R63K, R74K, S77T, M81L
VL: B3 VL with Q18H, N35I, K44R, S48T, S58N, R82S, K112E
modifications: enriched paired helical filament tau, hyperphosphorylated
EC50 (ePHF): 0.11 nM

B8: V0024 (antibody, V domains shown)
VH: B3 VH
VL: B3 VL
modifications: enriched paired helical filament tau, hyperphosphorylated
EC50 (ePHF): 0.125 nM

B9: V0024 (antibody, V domains shown)
VH: B3 VH
VL: B3 VL
modifications: immunopurified paired helical filament tau, hyperphosphorylated
Kd (iPHF [1]): 2.8 nM
Kd (iPHF [5]): 0.124 nM

B10: V0023 (antibody, V domains shown)
VH: B3 VH with R31I, Q43H, N50K, T58G, N60Y, R63K, R74K, S77T, M81L
VL: B3 VL with Q18H, N35I, K44R, S48T, S58N, R82S, K112E
EC50 [2]: 0.252 nM
EC50 [3]: 0.217 nM
EC50 (Tau409-426 pS422 peptide [4]): 0.234 nM
Kd (tau peptide 413-430): 0.207 nM

B11: V0022 (antibody, V domains shown)
VH: B5 VH
VL: B3 VL with S32N, N35I, H37Y, S58N, S68G
modifications: enriched paired helical filament tau, hyperphosphorylated
EC50 (ePHF): 0.07 nM

B12: V0052 (antibody, V domains shown)
VH: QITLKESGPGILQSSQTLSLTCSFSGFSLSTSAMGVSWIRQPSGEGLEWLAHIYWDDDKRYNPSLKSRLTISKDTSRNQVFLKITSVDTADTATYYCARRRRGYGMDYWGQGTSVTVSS
VL: SIVMTQTPKFLLVSAGDRVTITCKASQSVSNDVAWYQQKPGQSPKLLIYYASNRCTGVPDRFTGSGYGTDFTFTISTVQAEDLAVYFCQQDYRSPLTFGAGTKLELK
modifications: immunopurified paired helical filament tau, hyperphosphorylated
Kd (iPHF [1]): 0.6 nM
Kd (iPHF [6]): 2.64 nM
Kd (iPHF [7]): 4.46 nM

B13: V0009 (antibody, V domains shown)
VH: EVQLVESGGALVQPGGSLSLSCAASGFTFTDYYMSWVRQPPGKALEWLALIRNKAKGFTTEYSASVKGRFTISRDNSQSILLFQMNDLRADDSATYYCVRDINYWGQGTTLTVSS
VL: not shown
modifications: immunopurified paired helical filament tau, hyperphosphorylated
Kd (iPHF [1]): 0.2 nM
Kd (iPHF [5]): 0.296 nM

B14: V0009 (antibody, V domains shown)
VH: B13 VH
VL: not shown
modifications: enriched paired helical filament tau, hyperphosphorylated
EC50 (ePHF): 0.038 nM

B15: Ab10 (antibody, V domains shown)
VH: EVQLVQSGAEVKKPGSSVKVSCKASGFTFTRYWMHWVKERPGHGLEWIGNINPNNGGTDFNEKFKNRVTMTVHKSITTAYMELSRLTSDDSAVYYCARGTGTGAMDYWGQGTLVSVSS
VL: DIVMTQTPLSSPVTLGQPASISCRSSQSLVHNNGITYLYWYQQRPGQPPRLLIYRVSNRFSGVPDRFSGSGAGTDFTLKINRVEAEDVGVYFCFQGTHVPRTFGQGTKLEIK
Kd (Tau409-426 pS422 peptide [8]): 0.0436 nM

B16: Ab6 (antibody, V domains shown)
VH: QVQLVESGAEVKKPGASVKVSCKASGFTFTRYWMHWVKERPGHGLEWMGNINPNNGGTDFNEKFKNRVTITVHKSASTAYMELSSLRSEDTAVYYCARGTGTGAMDYWGQGTTVTVSS
VL: DIVMTQSPLSLSVTPGQPASISCRSSQSLVHNNGITYLYWYLQKPGQSPQLLIYRVSNRFSGVPDRFSGSGSGTDFTLKISRVEAEDVGVYYCFQGTHVPRTFGQGTKVEIK
Kd (Tau409-426 pS422 peptide [8]): 0.0398 nM

B17: Ab4 (antibody, V domains shown)
VH: B16 VH with E6Q, H43Q, I70M, A76T, A79V, Y80F, M81I, E82Q, T113S
VL: B16 VL
Kd (Tau409-426 pS422 peptide [8]): 0.0361 nM

B18: Ab9 (antibody, V domains shown)
VH: B15 VH
VL: B16 VL
Kd (Tau409-426 pS422 peptide [8]): 0.0763 nM

B19: Ab7 (antibody, V domains shown)
VH: B15 VH with E1Q, S16A, K38R, T77S, R85S, T87R, S115T
VL: B16 VL with I2V, S12P, P15L, L42Q, K44R, Q50R, V109L
Kd (Tau409-426 pS422 peptide [8]): 0.0398 nM

B20: Ab11 (antibody, V domains shown)
VH: B16 VH with E6Q, H43Q, I70M, A76T, A79V, Y80F, M81I, E82Q, T113S
VL: B16 VL with I2V, S12P, P15L, L42Q, K44R, Q50R, V109L
Kd (Tau409-426 pS422 peptide [8]): 0.0403 nM

B21: Ab3 (antibody, V domains shown)
VH: B15 VH
VL: B16 VL with I2V, S12P, P15L, L42Q, K44R, Q50R, V109L
Kd (Tau409-426 pS422 peptide [8]): 0.0457 nM
